The results in this text go back to patent US9896488B2.

The experiment deals with Fc-tagged extracellular domain of RPTPσ (wild type) (mouse) (UniProt B0V2N1). Put plainly: ELISA: RPTPσ-Fc on protein G plates, biotinylated aggrecan (5 ug/ml) preincubated with protamine (0-5 ug/ml). The reference is binding without protamine. Background: ELISA stands for enzyme-linked immunosorbent assay.

Consider “Biotinylated aggrecan (from UniProt P13608)”, for which the fold increase of binding in the presence of protamine worked out at 2 fold.
